From publication PMC8523171, “The cooperative binding of TDP-43 to GU-rich RNA repeats antagonizes TDP-43 aggregation”

How the values were obtained:
TDP-43 RRM1-2 (human) = TDP-43 RRM1-2 (human) (UniProt Q13148); test: ITC; details: apparent, one set of sites model, ITC: 15 mM phosphate pH 6.8, 25 mM KCl, 1 mM TCEP, 25 C, NMR: same buffer, 298 K (SEA-HSQC 310 K), EMSA: 20 mM HEPES pH 7.6, 25 mM KCl, 2 mM MgCl2 …
TDP-43 RRM1-2 [1] = biological target: T1, TDP-43 RRM1-2 (human, UniProt Q13148 101-277); test: NMR and SAXS; same dimer interface as with (GU)12; ITC: 15 mM phosphate pH 6.8, 25 mM KCl, 1 mM TCEP, 25 C; NMR: same buffer, 298 K (SEA-HSQC 310 K); EMSA: 20 mM HEPES pH 7.6, 25 mM KCl, 1 mM TCEP, 2 mM MgCl2, room temperature, 10 pmol DNA in 10 uL; details: protein: recombinant; tags: His6 cleaved by TEV; residual N-terminal GSH (180 aa); single strand
TDP-43 RRM1-2 [2] = biological target: T1, TDP-43 RRM1-2; test: ITC; ITC: 15 mM phosphate pH 6.8, 25 mM KCl, 1 mM TCEP, 25 C; NMR: same buffer, 298 K (SEA-HSQC 310 K); EMSA: 20 mM HEPES pH 7.6, 25 mM KCl, 1 mM TCEP, 2 mM MgCl2, room temperature, 10 pmol DNA in 10 uL; details: protein: recombinant; tags: His6 cleaved by TEV; residual N-terminal GSH (180 aa); single strand
TDP-43 RRM1 [3] = biological target: T2, TDP-43 RRM1 (human, UniProt Q13148 101-192); test: as above; details: protein: recombinant; tags: His6 cleaved by TEV; chain copies: 2; single strand
TDP-43 RRM1-2 [4] = biological target: T1, TDP-43 RRM1-2; test: NMR; additional CSPs and peak broadening; ITC: 15 mM phosphate pH 6.8, 25 mM KCl, 1 mM TCEP, 25 C; NMR: same buffer, 298 K (SEA-HSQC 310 K); EMSA: 20 mM HEPES pH 7.6, 25 mM KCl, 1 mM TCEP, 2 mM MgCl2, room temperature, 10 pmol DNA in 10 uL; details: protein: recombinant; tags: His6 cleaved by TEV; residual N-terminal GSH (180 aa); single strand
TDP-43 RRM1-2 [5] = biological target: T1, TDP-43 RRM1-2; test: ITC; Kd1, first monomer; ITC: 15 mM phosphate pH 6.8, 25 mM KCl, 1 mM TCEP, 25 C; NMR: same buffer, 298 K (SEA-HSQC 310 K); EMSA: 20 mM HEPES pH 7.6, 25 mM KCl, 1 mM TCEP, 2 mM MgCl2, room temperature, 10 pmol DNA in 10 uL; details: protein: recombinant; tags: His6 cleaved by TEV; residual N-terminal GSH (180 aa); single strand
TDP-43 RRM1 [6] = biological target: T2, TDP-43 RRM1; test: ITC; Kd1; ITC: 15 mM phosphate pH 6.8, 25 mM KCl, 1 mM TCEP, 25 C; NMR: same buffer, 298 K (SEA-HSQC 310 K); EMSA: 20 mM HEPES pH 7.6, 25 mM KCl, 1 mM TCEP, 2 mM MgCl2, room temperature, 10 pmol DNA in 10 uL; details: protein: recombinant; tags: His6 cleaved by TEV; chain copies: 2; single strand
TDP-43 RRM2 = TDP-43 RRM2 (human, UniProt Q13148 176-277); test: ITC; two protein copies; Kd values not in material; ITC: 15 mM phosphate pH 6.8, 25 mM KCl, 1 mM TCEP, 25 C; NMR: same buffer, 298 K (SEA-HSQC 310 K); EMSA: 20 mM HEPES pH 7.6, 25 mM KCl, 1 mM TCEP, 2 mM MgCl2, room temperature, 10 pmol DNA in 10 uL; details: protein: recombinant; tags: His6 cleaved by TEV; chain copies: 2; single strand
TDP-43 RRM1-2 [7] = biological target: T1, TDP-43 RRM1-2; test: NMR and SAXS; two RRM1-2 bound; ITC: 15 mM phosphate pH 6.8, 25 mM KCl, 1 mM TCEP, 25 C; NMR: same buffer, 298 K (SEA-HSQC 310 K); EMSA: 20 mM HEPES pH 7.6, 25 mM KCl, 1 mM TCEP, 2 mM MgCl2, room temperature, 10 pmol DNA in 10 uL; details: protein: recombinant; tags: His6 cleaved by TEV; residual N-terminal GSH (180 aa); single strand
TDP-43 RRM1-2 [8] = biological target: T1, TDP-43 RRM1-2; test: NMR; single RRM1-2 bound; ITC: 15 mM phosphate pH 6.8, 25 mM KCl, 1 mM TCEP, 25 C; NMR: same buffer, 298 K (SEA-HSQC 310 K); EMSA: 20 mM HEPES pH 7.6, 25 mM KCl, 1 mM TCEP, 2 mM MgCl2, room temperature, 10 pmol DNA in 10 uL; details: protein: recombinant; tags: His6 cleaved by TEV; residual N-terminal GSH (180 aa); single strand

T1 sequence (Q13148 101-277): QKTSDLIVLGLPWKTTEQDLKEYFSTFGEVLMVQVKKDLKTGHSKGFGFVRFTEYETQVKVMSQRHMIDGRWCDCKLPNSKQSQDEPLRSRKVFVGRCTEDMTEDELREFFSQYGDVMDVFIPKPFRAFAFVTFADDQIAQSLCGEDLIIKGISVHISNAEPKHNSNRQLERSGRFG
T2 sequence (Q13148 101-192): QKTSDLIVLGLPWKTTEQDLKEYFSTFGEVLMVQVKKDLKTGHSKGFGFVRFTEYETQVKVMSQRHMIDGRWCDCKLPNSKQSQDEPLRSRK
TDP-43 RRM1-2 (human), sequence (Q13148 101-277): as the sequence (Q13148 101-277) above
TDP-43 RRM2, sequence (Q13148 176-277): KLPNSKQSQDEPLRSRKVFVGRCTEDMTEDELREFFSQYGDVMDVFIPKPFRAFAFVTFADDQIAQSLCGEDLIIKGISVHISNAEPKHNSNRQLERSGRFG

How did the Kd (TDP-43 RRM1-2 (human)) turn out when CLIP34nt (DNA) was run?
Its Kd is 270 nM.

Does GUGUGAAUGAAUGUGUGUGUGUGU (ssRNA) [AUG12-(GU)6] bind (TDP-43 RRM1-2 [1])?
Result: binds

How did the Kd (TDP-43 RRM1-2 [2]) turn out when GTGTGT (ssDNA) [(GT)3] was run?
Its Kd is 2200 nM.

And the Kd (TDP-43 RRM1 [3])?
Its Kd is 929 nM.

Does GUGUGUGUGUGUGUGUGUGUGUGUGUGUGUGUGUGUGUGUGUGUGUGU (ssRNA) [(GU)24] bind (TDP-43 RRM1-2 [4])?
Result: binds

Which results are given for GTGTGTGTGTGTGTGTGTGTGTGT (ssDNA) [(GT)12]?
Kd (TDP-43 RRM1-2 [5]): 51 nM; Kd (TDP-43 RRM1 [6]): 2300 nM

How did the Kd (TDP-43 RRM1-2 [2]) turn out when GTGTGTGTGTGT (ssDNA) [(GT)6] was run?
The Kd was 68.4 nM.

And the binding signal (TDP-43 RRM2)?
Its binding signal is 0.05 Kd1/Kd2 ratio.

And the Kd (TDP-43 RRM1 [6])?
The Kd was 84.4 nM.

Does GUGUGUGUGUGUGUGUGUGUGUGU (ssRNA) [(GU)12] bind (TDP-43 RRM1-2 [7])?
Result: binds

Does GUGUGUGUGUGU (ssRNA) [(GU)6] bind (TDP-43 RRM1-2 [8])?
Result: binds
